# Assay results from PMC11466669 (The Journal of Biological Chemistry, 2024).
# Positions count from the first letter of the chain named. Names and notes keep the numbering of the source.
# T1: MsRuvC WT (Mycobacterium smegmatis mc2 155) (UniProt A0QWH4)
# T1 sequence: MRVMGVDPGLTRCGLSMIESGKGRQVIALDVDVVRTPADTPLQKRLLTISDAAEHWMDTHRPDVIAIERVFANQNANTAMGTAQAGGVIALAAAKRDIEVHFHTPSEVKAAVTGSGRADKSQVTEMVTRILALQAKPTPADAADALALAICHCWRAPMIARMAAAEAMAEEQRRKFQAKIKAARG
# T2: MsRuvC-E68A (Mycobacterium smegmatis mc2 155, UniProt A0QWH4 1-185, E68A)
# T2 sequence: T1 sequence with E68A
# T3: MsRuvC-D7A (Mycobacterium smegmatis mc2 155, UniProt A0QWH4 1-185, D7A)
# T3 sequence: T1 sequence with D7A
# T4: MsRuvC WT (Mycobacterium smegmatis mc2 155, UniProt A0QWH4 1-185)
# T4 sequence: T1 sequence
# B1: Mobile HJ (MST) (structured_DNA)
# DNA 1: GACGCTGCCGAATTCTACCAGTGCCTTGCTAGGACATCTTTGCCCACCTGCAGGTTCACCC
# DNA 2: TGGGTGAACCTGCAGGTGGGCAAAGATGTCCTAGCAATGTAATCGTCAAGCTTTATGCCGTT
# DNA 3: CAACGGCATAAAGCTTGACGATTACATTGCTAGGACATGCTGTCTAGAGGATCCGACTATCGA
# DNA 4: ATCGATAGTCGGATCCTCTAGACAGCATGTCCTAGCAAGGCACTGGTAGAATTCGGCAGCGT
# B2: Mycobacterium smegmatis RuvC (enzyme)
# chain: T1 sequence
# B3: MsRuvC-D7A (enzyme)
# chain: T1 sequence with D7A
# B4: MsRuvC-E68A (enzyme)
# chain: T1 sequence with E68A
# Experiments:
# [1] = biological target: T1, MsRuvC WT (Mycobacterium smegmatis mc2 155); experiment: SPR
# MsRuvC-E68A = biological target: T2, MsRuvC-E68A; experiment: MST
# MsRuvC-D7A = biological target: T3, MsRuvC-D7A; experiment: MST
# MsRuvC WT = biological target: T4, MsRuvC WT; experiment: MST
# SEC = biological target: the molecule itself; experiment: SEC
Molecule,Kd [1],stoichiometry N (SEC),other results
3'-flap structure (SPR),296 nM,,
5'-flap structure,410 nM,,
Replication fork,203 nM,,
Splayed-arm duplex,480 nM,,
dsDNA with 3'-ssDNA overhang,263 nM,,
dsDNA with 5'-ssDNA overhang,201 nM,,
B1,,,Kd (MsRuvC-E68A): 300 ± 110 nM; Kd (MsRuvC-D7A): 650 ± 170 nM; Kd (MsRuvC WT): 580 ± 270 nM
B2,,2,
B3,,2,
B4,,2,
